From the Immune Epitope Database (IEDB)

Legend:
HLA-B*44:02 = test: IEDB peptide-MHC binding, purified MHC/competitive/radioactivity; filed as Kd, often an IC50 or EC50 that approximates it; ≥ and ≤ were set here for values at or beyond the usual limits of such assays
HLA-B*40:02 = test: as above
HLA-B*40:01 = test: as above
HLA-B*18:01 = test: as above
HLA-B*45:01 = test: as above
HLA-B*44:03 = test: as above
HLA-B*15:01 = test: IEDB peptide-MHC binding, purified MHC/competitive/fluorescence; filed as Kd, often an IC50 or EC50 that approximates it; ≥ and ≤ were set here for values at or beyond the usual limits of such assays; conditions: source organism: Paracoccus denitrificans PD1222
HLA-A*26:01 = test: IEDB peptide-MHC binding, purified MHC/competitive/radioactivity; filed as Kd, often an IC50 or EC50 that approximates it; ≥ and ≤ were set here for values at or beyond the usual limits of such assays
HLA-A*01:01 = test: as above
HLA-A*32:01 = test: as above
HLA-A*30:02 = test: as above
HLA-A*30:01 = test: as above
HLA-A*29:02 = test: as above
HLA-A*68:02 = test: as above
HLA-A*02:01 = test: as above
HLA-A*02:06 = test: as above
HLA-A*02:03 = test: as above; conditions: source organism: Trypanosoma cruzi
HLA-A*02:02 = test: as above; conditions: source organism: Trypanosoma cruzi
[1] = source organism: Mammarenavirus brazilense
[2] = source organism: SARS coronavirus Tor2
[3] = source organism: Mammarenavirus machupoense
[4] = source organism: Mammarenavirus whitewaterense
[5] = source organism: Trypanosoma cruzi
[6] = source organism: Mammarenavirus lassaense

Which results are given for AENDIVEAL?
Kd (HLA-B*44:02; [1]): 0.0435 µM; Kd (HLA-B*40:02; [1]): 0.0252 µM; Kd (HLA-B*40:01; [1]): 0.00587 µM; Kd (HLA-B*18:01; [1]): 10.8 µM; Kd (HLA-B*45:01; [1]): 1.03 µM; Kd (HLA-B*44:03; [1]): 0.108 µM

Which results are given for AEWVLAYMLF?
Kd (HLA-B*44:02; [2]): 0.0162 µM; Kd (HLA-B*40:02; [2]): 0.0192 µM; Kd (HLA-B*40:01; [2]): 0.152 µM; Kd (HLA-B*18:01; [2]): 0.327 µM; Kd (HLA-B*45:01; [2]): 0.041 µM; Kd (HLA-B*44:03; [2]): 0.00916 µM

With ALAAAGAAY as the sequence, how does the Kd (HLA-B*15:01) read?
The Kd was 0.123 µM.

What does the source list for CEEMLDNRAT?
Kd (HLA-B*44:02; [2]): 0.56 µM; Kd (HLA-B*40:02; [2]): 8.59 µM; Kd (HLA-B*40:01; [2]): 18.3 µM; Kd (HLA-B*18:01; [2]): ≥ 46.1 µM; Kd (HLA-B*45:01; [2]): 0.139 µM; Kd (HLA-B*44:03; [2]): 10.3 µM

With DESGLNISGY as the sequence, how does the Kd (HLA-B*44:02; [1]) read?
Its Kd is 12.8 µM.

And the Kd (HLA-B*40:02; [1])?
The Kd was ≥ 70.8 µM.

And the Kd (HLA-B*40:01; [1])?
The Kd was ≥ 69.5 µM.

What about the Kd (HLA-B*18:01; [1]) of the same sequence?
The Kd was 0.199 µM.

And the Kd (HLA-B*45:01; [1])?
Its Kd is ≥ 70 µM.

What about the Kd (HLA-B*44:03; [1]) of the same sequence?
Its Kd is 7.83 µM.

With DESKKEINLL as the sequence, how does the Kd (HLA-B*44:02; [3]) read?
The Kd was ≥ 70.2 µM.

What about the Kd (HLA-B*40:02; [3]) of the same sequence?
The Kd was ≥ 70.8 µM.

What about the Kd (HLA-B*40:01; [3]) of the same sequence?
The Kd was ≥ 69.5 µM.

What about the Kd (HLA-B*18:01; [3]) of the same sequence?
The Kd was 2.88 µM.

What about the Kd (HLA-B*45:01; [3]) of the same sequence?
Its Kd is ≥ 70 µM.

And the Kd (HLA-B*44:03; [3])?
Its Kd is ≥ 70.1 µM.

What does the source list for DLGLLYTAKY?
Kd (HLA-A*26:01; [4]): 1 µM; Kd (HLA-A*01:01; [4]): 13.7 µM; Kd (HLA-A*32:01; [4]): ≥ 69.9 µM; Kd (HLA-A*30:02; [4]): 0.0369 µM; Kd (HLA-A*30:01; [4]): ≥ 58.4 µM; Kd (HLA-A*29:02; [4]): 0.386 µM

With EEAIRHVRA as the sequence, how does the Kd (HLA-B*44:02; [2]) read?
Its Kd is 2.78 µM.

What about the Kd (HLA-B*40:02; [2]) of the same sequence?
The Kd was 5.53 µM.

And the Kd (HLA-B*40:01; [2])?
The Kd was 5.59 µM.

What about the Kd (HLA-B*18:01; [2]) of the same sequence?
Its Kd is ≥ 55.7 µM.

What about the Kd (HLA-B*45:01; [2]) of the same sequence?
The Kd was 0.0398 µM.

And the Kd (HLA-B*44:03; [2])?
Its Kd is 5.81 µM.

Which Kd (HLA-B*44:02; [3]) does the source give for EEPVALLPLS here?
Its Kd is 8.42 µM.

What about the Kd (HLA-B*40:02; [3]) of the same sequence?
The Kd was 4.41 µM.

What about the Kd (HLA-B*40:01; [3]) of the same sequence?
Its Kd is 5.16 µM.

And the Kd (HLA-B*18:01; [3])?
The Kd was 15.5 µM.

What about the Kd (HLA-B*45:01; [3]) of the same sequence?
Its Kd is 0.795 µM.

What about the Kd (HLA-B*44:03; [3]) of the same sequence?
The Kd was 2.94 µM.

How did the Kd (HLA-B*44:02; [2]) turn out when EEVVLKNGEL was run?
Its Kd is 0.0467 µM.

And the Kd (HLA-B*40:02; [2])?
The Kd was 0.0139 µM.

What about the Kd (HLA-B*40:01; [2]) of the same sequence?
The Kd was 0.00633 µM.

And the Kd (HLA-B*18:01; [2])?
Its Kd is 0.381 µM.

And the Kd (HLA-B*45:01; [2])?
Its Kd is 1.33 µM.

And the Kd (HLA-B*44:03; [2])?
Its Kd is 0.0148 µM.

For ELRSKREQEV, which Kd (HLA-A*68:02; source organism: Homo sapiens) is on record?
Its Kd is 2.53 µM.

And the Kd (HLA-A*02:01; source organism: Homo sapiens)?
The Kd was 18.8 µM.

And the Kd (HLA-A*02:06; source organism: Homo sapiens)?
The Kd was ≥ 72.5 µM.

Which Kd (HLA-A*68:02; source organism: Homo sapiens) does the source give for EMRQKHSQAV here?
The Kd was 0.512 µM.

What about the Kd (HLA-A*02:01; source organism: Homo sapiens) of the same sequence?
The Kd was ≥ 33.9 µM.

And the Kd (HLA-A*02:06; source organism: Homo sapiens)?
The Kd was ≥ 72.5 µM.

With EWIFRALKY as the sequence, how does the Kd (HLA-A*26:01; [1]) read?
Its Kd is 7.08 µM.

And the Kd (HLA-A*01:01; [1])?
The Kd was ≥ 37.3 µM.

What about the Kd (HLA-A*32:01; [1]) of the same sequence?
The Kd was ≥ 77.8 µM.

And the Kd (HLA-A*30:02; [1])?
The Kd was 7.75 µM.

What about the Kd (HLA-A*30:01; [1]) of the same sequence?
Its Kd is ≥ 38 µM.

What about the Kd (HLA-A*29:02; [1]) of the same sequence?
The Kd was 0.183 µM.

For FEVLAVEDT, which Kd (HLA-B*44:02; [2]) is on record?
The Kd was ≥ 47.9 µM.

And the Kd (HLA-B*40:02; [2])?
The Kd was 1.87 µM.

And the Kd (HLA-B*40:01; [2])?
Its Kd is 10.9 µM.

And the Kd (HLA-B*18:01; [2])?
The Kd was 3.4 µM.

What about the Kd (HLA-B*45:01; [2]) of the same sequence?
The Kd was 11.6 µM.

What about the Kd (HLA-B*44:03; [2]) of the same sequence?
The Kd was 13.5 µM.

FLPSDFFPSA was tested. Which Kd (HLA-A*02:01; source organism: Hepatitis B virus) did it give?
The Kd was 0.023 µM.

With GESVKTQFNY as the sequence, how does the Kd (HLA-B*44:02; [2]) read?
The Kd was 0.479 µM.

And the Kd (HLA-B*40:02; [2])?
Its Kd is 0.486 µM.

What about the Kd (HLA-B*40:01; [2]) of the same sequence?
Its Kd is 11.6 µM.

And the Kd (HLA-B*18:01; [2])?
Its Kd is ≥ 20.1 µM.

What about the Kd (HLA-B*45:01; [2]) of the same sequence?
The Kd was 7.63 µM.

And the Kd (HLA-B*44:03; [2])?
Its Kd is 0.295 µM.

For GLLPLFLLLG, which Kd (HLA-A*68:02; [5]) is on record?
The Kd was 7.59 µM.

What about the Kd (HLA-A*02:01; [5]) of the same sequence?
The Kd was 0.000154 µM.

And the Kd (HLA-A*02:06; [5])?
The Kd was 0.0183 µM.

What about the Kd (HLA-A*02:03) of the same sequence?
Its Kd is 0.138 µM.

What about the Kd (HLA-A*02:02) of the same sequence?
The Kd was 0.0291 µM.

What does the source list for KEAYCQEFSL?
Kd (HLA-B*44:02; [6]): 4.18 µM; Kd (HLA-B*40:02; [6]): 0.00968 µM; Kd (HLA-B*40:01; [6]): 0.0883 µM; Kd (HLA-B*18:01; [6]): ≥ 36.9 µM; Kd (HLA-B*45:01; [6]): 5.69 µM; Kd (HLA-B*44:03; [6]): 16.1 µM
